Test results: patent US20150299726A1, “AHAS MUTANTS” (BASF PLANT SCIENCE GMBH, priority 2007, published 2015)

System: AHAS minus E. coli
Assay: E. coli complementation assay, Arabidopsis AHASL mutants (AE plasmids) with imazethapyr
Type: cell-based
Details: colony size scored visually in the presence of imazethapyr
Description: Vectors AE10 through AE24 were made as follows. The wild type Arabidopsis thaliana AHAS large subunit gene was amplified under mutagenic conditions using the Genemorph II random mutagenesis kit (Stratagene, La Jolla, Calif.), resulting in randomly mutagenized amplified DNA fragments of this gene. This mutant DNA was then cloned back into AE7, replacing the wild type A. thaliana large subunit gene (between the unique SacII and AgeI sites on AE7) with the mutagenized forms. This DNA was transformed into E. coli strain TOP10 and selected on LB agar medium in such a fashion as to have a large number of unique transformants, each with independent, mutagenized AHAS genes. These colonies were scraped together and plasmid DNA was prepared from this entire primary library. This DNA was transformed into AHAS minus E. coli and again selected on LB agar media with carbenicillin. Plasmid positive colonies from this step were replica plated using velveteen onto minimal agar medium without branched chain amino acids and containing 30-micromolar imazethapyr.
The DNA sequence of the A. thaliana AHAS large subunit gene was determined for each of the growth positive colonies. […] Because the AHAS function and imidazolinone tolerance screen was on a secondary library, replicates of the same mutations were found, as determined by DNA sequence analysis. […]

B1: AE7: E. coli expression plasmid, Arabidopsis AHASL wild type (protein, UniProt P17597 56-670, looked up)
Acetolactate synthase, …: SSSPSSISAVLNTTTNVTTTPSPTKPTKPETFISRFAPDQPRKGADILVEALERQGVETVFAYPGGASMEIHQALTRSSSIRNVLPRHEQGGVFAAEGYARSSGKPGICIATSGPGATNLVSGLADALLDSVPLVAITGQVPRRMIGTDAFQETPIVEVTRSITKHNYLVMDVEDIPRIIEEAFFLATSGRPGPVLVDVPKDIQQQLAIPNWEQAMRLPGYMSRMPKPPEDSHLEQIVRLISESKKPVLYVGGGCLNSSDELGRFVELTGIPVASTLMGLGSYPCDDELSLHMLGMHGTVYANYAVEHSDLLLAFGVRFDDRVTGKLEAFASRAKIVHIDIDSAEIGKNKTPHVSVCGDVKLALQGMNKVLENRAEELKLDFGVWRNELNVQKQKFPLSFKTFGEAIPPQYAIKVLDELTDGKAIISTGVGQHQMWAAQFYNYKKPRQWLSSGGLGAMGFGLPAAIGASVANPDAIVVDIDGDGSFIMNVQELATIRVENLPVKVLLLNNQHLGMVMQWEDRFYKANRAHTFLGDPAQEDEIFPNMLLFAAACGIPAARVTKKADLREAIQTMLDTPGPYLLDVICPHQEHVLPMIPSGGTFNDVITEGDGRIKY
E. coli Imazethapyr Tolerance Score: − (IN)
